# Reference: the Human Domainome abundance scans (Beltran et al. 2025)
# ± gives the uncertainty stated by the source.
# B1: Lysine-specific demethylase 5C, residues 319 to 373; numbered along this chain, P41229 (parent)
# chain: AQFIESYVCRMCSRGDEDDKLLLCDGCDDNYHIFCLLPPLPEIPKGVWRCPKCVM
# Variants of: B1
# Experiment: abundance fitness (aPCA) (normalised: wild type 0, dead -1); higher = more abundant; growth selection in yeast, the domain comes from the species named
# Details: Homo sapiens
row,Variant,abundance fitness
1,C27H,-0.905 ± 0.29
2,V47S,0.081 ± 0.12
3,P39C,-0.264 ± 0.15
4,L36H,0.006 ± 0.26
5,C27N,-0.806 ± 0.22
6,W48S,-0.839 ± 0.15
7,C50D,-0.841 ± 0.25
8,E42F,-0.231 ± 0.17
9,V54G,-0.27 ± 0.13
10,G15W,-0.169 ± 0.12
11,S13P,-0.13 ± 0.14
12,Y31D,-0.776 ± 0.18
13,V8F,-0.28 ± 0.24
14,G46I,-0.538 ± 0.21
15,P38W,-0.491 ± 0.16
16,S13F,-0.2 ± 0.15
17,G26V,-0.217 ± 0.12
18,S13E,0.419 ± 0.15
19,V47L,-0.359 ± 0.16
20,P41W,-0.36 ± 0.13
21,R49P,-0.949 ± 0.31
22,M55T,-0.183 ± 0.31
23,P41K,-0.092 ± 0.23

row,Variant,abundance fitness
1,V47W,-0.473 ± 0.18
2,M11W,-0.18 ± 0.13
3,E17D,0.078 ± 0.13
4,E42N,-0.034 ± 0.17
5,F3S,0.06 ± 0.1
6,A1D,-0.009 ± 0.44
7,M11L,-0.264 ± 0.093
8,F34V,-0.078 ± 0.1
9,P51Y,-0.312 ± 0.26
10,L23Q,-0.073 ± 0.14
11,L22P,-0.897 ± 0.2
12,L23T,0.094 ± 0.082
13,C9S,-0.82 ± 0.11
14,R10L,0.021 ± 0.21
15,D16V,-0.029 ± 0.1
16,L23F,-0.405 ± 0.27
17,L36M,-0.275 ± 0.17
18,L23D,0.084 ± 0.16
19,Y7L,-0.057 ± 0.1
20,L23H,-0.302 ± 0.28
21,N30E,-0.052 ± 0.12
22,S13W,-0.237 ± 0.17
23,H32I,-0.859 ± 0.23

row,Variant,abundance fitness
1,L37A,-0.02 ± 0.13
2,L23C,-0.122 ± 0.14
3,L40F,-0.678 ± 0.46
4,L22G,-0.912 ± 0.16
5,C9T,-0.726 ± 0.15
6,G26C,0.017 ± 0.25
7,H32R,-0.675 ± 0.11
8,I43V,-0.137 ± 0.15
9,G26I,-0.21 ± 0.18
10,E5V,-0.481 ± 0.11
11,K52G,-0.024 ± 0.085
12,C50R,-0.926 ± 0.14
13,D19N,0.04 ± 0.1
14,F3M,0.095 ± 0.17
15,D18M,0.107 ± 0.11
16,G26P,-0.799 ± 0.28
17,L21Y,-0.338 ± 0.11
18,I43F,-0.21 ± 0.23
19,D28C,-0.359 ± 0.32
20,C35I,-1 ± 0.4
21,G15D,-0.058 ± 0.12
22,V8P,-0.12 ± 0.095
23,L37C,-0.137 ± 0.14

row,Variant,abundance fitness
1,H32F,-0.697 ± 0.22
2,C9G,-0.655 ± 0.15
3,Q2V,-0.153 ± 0.27
4,L22S,-0.474 ± 0.092
5,C9L,-0.978 ± 0.19
6,L22Q,-0.561 ± 0.23
7,Q2I,0.186 ± 0.37
8,L23K,0.169 ± 0.1
9,I4M,0.115 ± 0.14
10,R49K,0.205 ± 0.17
11,I4K,-0.033 ± 0.18
12,M11E,0.171 ± 0.14
13,D25I,-0.224 ± 0.1
14,L22K,-0.332 ± 0.13
15,D18E,0.042 ± 0.092
16,H32S,-0.984 ± 0.17
17,C27R,-0.759 ± 0.11
18,R49M,-0.092 ± 0.19
19,D16R,-0.026 ± 0.1
20,L36V,-0.118 ± 0.1
21,L22D,-1.1 ± 0.37
22,L21F,-0.078 ± 0.1
23,P39R,-0.164 ± 0.12

row,Variant,abundance fitness
1,Y7F,-0.14 ± 0.26
2,D25E,-0.246 ± 0.16
3,F3L,0.005 ± 0.1
4,D18C,-0.178 ± 0.18
5,D19I,-0.198 ± 0.16
6,C35R,-0.41 ± 0.12
7,P41A,-0.134 ± 0.13
8,C35V,-1.17 ± 0.22
9,E42K,-0.506 ± 0.17
10,V54M,-0.145 ± 0.19
11,I43Q,0.076 ± 0.14
12,L21H,-0.458 ± 0.11
13,D25G,-0.081 ± 0.12
14,G46E,0.364 ± 0.26
15,H32A,-0.756 ± 0.17
16,P41T,-0.1 ± 0.2
17,G26M,-0.178 ± 0.17
18,W48I,-0.14 ± 0.27
19,Y7P,-0.073 ± 0.17
20,I33R,-0.381 ± 0.49
21,C53G,-0.865 ± 0.15
22,C35H,-0.235 ± 0.24
23,P38Y,-0.416 ± 0.18

row,Variant,abundance fitness
1,C24Y,-0.812 ± 0.27
2,Q2G,-0.446 ± 0.21
3,W48K,-0.635 ± 0.18
4,I43S,-0.082 ± 0.11
5,Y7Q,-0.052 ± 0.18
6,V54R,-0.131 ± 0.13
7,D25N,-0.293 ± 0.1
8,L23P,-0.017 ± 0.13
9,E5T,-0.078 ± 0.16
10,P38K,-0.283 ± 0.26
11,C9F,-0.659 ± 0.23
12,N30K,0.098 ± 0.1
13,G46D,0.043 ± 0.21
14,D18A,0.112 ± 0.087
15,C9D,-0.847 ± 0.23
16,L37P,-0.076 ± 0.16
17,P38T,-0.285 ± 0.2
18,V8G,-0.106 ± 0.12
19,G46W,-0.464 ± 0.24
20,S6C,-0.361 ± 0.19
21,Y31V,-0.113 ± 0.079
22,Q2L,-0.119 ± 0.11
23,R49V,-0.25 ± 0.15

row,Variant,abundance fitness
1,N30L,-0.238 ± 0.092
2,P41C,-0.185 ± 0.13
3,Y31C,-0.514 ± 0.22
4,V54A,-0.151 ± 0.11
5,V54K,-0.024 ± 0.21
6,Q2W,-0.057 ± 0.21
7,N30F,-0.077 ± 0.18
8,E42M,-0.37 ± 0.19
9,K52D,0.095 ± 0.17
10,P39D,-0.233 ± 0.18
11,P41L,0.135 ± 0.1
12,D25K,-0.199 ± 0.17
13,R49C,-0.468 ± 0.22
14,D25Y,-0.44 ± 0.12
15,K20Q,-0.093 ± 0.14
16,E17Q,-0.064 ± 0.12
17,Y31L,-0.589 ± 0.12
18,P39L,-0.473 ± 0.14
19,L21N,-0.366 ± 0.12
20,N30V,0.152 ± 0.081
